These results are taken from patent publication US20260258084A1, “New Peptides as Selective IL-23 Receptor Antagonists” (Sanofi, priority 2022, published 2026).

This test deals with T1, IL-23 receptor on the surface of HEK-Blue IL-23 cells (UniProt Q5VWK5 24-629, limits assumed).
T1 sequence (looked up): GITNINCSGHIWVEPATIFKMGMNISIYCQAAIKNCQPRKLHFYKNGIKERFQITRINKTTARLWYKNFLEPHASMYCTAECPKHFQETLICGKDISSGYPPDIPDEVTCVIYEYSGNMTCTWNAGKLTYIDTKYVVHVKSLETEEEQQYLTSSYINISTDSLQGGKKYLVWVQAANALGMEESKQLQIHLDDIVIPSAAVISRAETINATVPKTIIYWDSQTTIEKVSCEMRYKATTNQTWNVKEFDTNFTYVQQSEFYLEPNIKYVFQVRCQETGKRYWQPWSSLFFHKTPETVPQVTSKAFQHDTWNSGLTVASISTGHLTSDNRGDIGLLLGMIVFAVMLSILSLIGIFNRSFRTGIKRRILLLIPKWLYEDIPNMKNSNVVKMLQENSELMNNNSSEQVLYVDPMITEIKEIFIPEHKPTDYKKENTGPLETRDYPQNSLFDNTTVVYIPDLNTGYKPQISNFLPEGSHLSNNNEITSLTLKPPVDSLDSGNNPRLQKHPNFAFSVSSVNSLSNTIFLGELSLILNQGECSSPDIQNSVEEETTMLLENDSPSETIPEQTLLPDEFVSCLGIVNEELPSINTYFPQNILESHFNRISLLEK
As to the kind of experiment: cell-based or functional assay.

Starred links: 1 amine or outer side, 2 acyl side, 3 side chain; linkers in the order of their positions; H or OH if unused. Positions of bridges follow the written chain, without caps; N, C: chain ends. Non-standard residues stand in square brackets, D forms with d. Yde = (2S)-2-amino-3-[4-[2-(dimethylamino)ethoxy]phenyl]propanoic acid, CN(C)CCOc1ccc(C[C@H](N[*:1])C(=O)[*:2])cc1; Nmha = 6-(methylamino)hexanoic acid, CN(CCCCCC(=O)[*:2])[*:1]; Phe(4-OMe) = COc1ccc(C[C@H](N[*:1])C(=O)[*:2])cc1; Trp(7-Me) = Cc1cccc2c(C[C@H](N)C(=O)O)c[nH]c12; 2Nal = N[C@@H](Cc1ccc2ccccc2c1)C(=O)O; AEF = NCCOc1ccc(C[C@H](N)C(=O)O)cc1; 3Pal = N[C@@H](Cc1cccnc1)C(=O)O; αMeL = CC(C)C[C@](C)(N)C(=O)O; Nmapt = not defined here; Thp = NC1(C(=O)O)CCOCC1; Aib = CC(C)(N)C(=O)O; Ahx = NCCCCCC(=O)O; Ava = NCCCCC(=O)O; βAla = NCCC(=O)O; Sar = CNCC(=O)O

B1: Compound of SEQ ID NO: 43 (peptide)
peptide: [Ava]CNT[Trp(7-Me)]QC[Yde][2Nal][Aib]ESH-NH2
modifications: lactam N-11; disulfide 2-7
SMILES: Cc1cccc2c(C[C@@H]3NC(=O)[C@H]([C@@H](C)O)NC(=O)[C@H](CC(N)=O)NC(=O)[C@@H]4CSSC[C@H](NC(=O)[C@H](CCC(N)=O)NC3=O)C(=O)N[C@@H](Cc3ccc(OCCN(C)C)cc3)C(=O)N[C@@H](Cc3ccc5ccccc5c3)C(=O)NC(C)(C)C(=O)N[C@H](C(=O)N[C@@H](CO)C(=O)N[C@@H](Cc3c[nH]cn3)C(N)=O)CCC(=O)NCCCCC(=O)N4)c[nH]c12
For B1, the “pSTAT3 (nM)” value was 1.31 nM.

B2: Compound of SEQ ID NO: 57 (peptide)
peptide: [Ava]CNTWQC[Yde][2Nal][Aib]ENNI-NH2
modifications: lactam N-11; disulfide 2-7
SMILES: CC[C@H](C)[C@H](NC(=O)[C@H](CC(N)=O)NC(=O)[C@H](CC(N)=O)NC(=O)[C@@H]1CCC(=O)NCCCCC(=O)N[C@H]2CSSC[C@H](NC(=O)[C@H](CCC(N)=O)NC(=O)[C@H](Cc3c[nH]c4ccccc34)NC(=O)[C@H]([C@@H](C)O)NC(=O)[C@H](CC(N)=O)NC2=O)C(=O)N[C@@H](Cc2ccc(OCCN(C)C)cc2)C(=O)N[C@@H](Cc2ccc3ccccc3c2)C(=O)NC(C)(C)C(=O)N1)C(N)=O
notes: §1 lactam bridge; @2 disulfide bridge
Turning to B2, the “pSTAT3 (nM)” value was 5.5 nM.

B3: Compound of SEQ ID NO: 48 (peptide)
peptide: [Ava]CNT[Trp(7-Me)]K(Ac)C[Yde][2Nal][Aib]ENH[βAla]-NH2
modifications: lactam N-11; disulfide 2-7
SMILES: CC(=O)NCCCC[C@@H]1NC(=O)[C@H](Cc2c[nH]c3c(C)cccc23)NC(=O)[C@H]([C@@H](C)O)NC(=O)[C@H](CC(N)=O)NC(=O)[C@@H]2CSSC[C@H](NC1=O)C(=O)N[C@@H](Cc1ccc(OCCN(C)C)cc1)C(=O)N[C@@H](Cc1ccc3ccccc3c1)C(=O)NC(C)(C)C(=O)N[C@H](C(=O)N[C@@H](CC(N)=O)C(=O)N[C@@H](Cc1c[nH]cn1)C(=O)NCCC(N)=O)CCC(=O)NCCCCC(=O)N2
As for B3, the “pSTAT3 (nM)” value was 0.6 nM.

B4: Compound of SEQ ID NO: 47 (peptide)
peptide: [Ava]CNT[Trp(7-Me)]K(Ac)C[Yde][2Nal][αMeL]ENH[Sar]-NH2
modifications: lactam N-11; disulfide 2-7
SMILES: CC(=O)NCCCC[C@@H]1NC(=O)[C@H](Cc2c[nH]c3c(C)cccc23)NC(=O)[C@H]([C@@H](C)O)NC(=O)[C@H](CC(N)=O)NC(=O)[C@@H]2CSSC[C@H](NC1=O)C(=O)N[C@@H](Cc1ccc(OCCN(C)C)cc1)C(=O)N[C@@H](Cc1ccc3ccccc3c1)C(=O)N[C@@](C)(CC(C)C)C(=O)N[C@H](C(=O)N[C@@H](CC(N)=O)C(=O)N[C@@H](Cc1c[nH]cn1)C(=O)N(C)CC(N)=O)CCC(=O)NCCCCC(=O)N2
For the molecule B4, the “pSTAT3 (nM)” value turned out to be 0.57 nM.

Turning to XCNTWQCXXXENN (Apt(§1)-C(@2)-N-T-W-Q-C(@2)-Yae-Nal-Aib-E(§1)-N-N-NH2) [Compound of SEQ ID NO: 5], the “pSTAT3 (nM)” value stood at 9.66 nM.

B5: Compound of SEQ ID NO: 40 (peptide)
peptide: [Nmha]CNTWQC[Yde][2Nal][αMeL]DN[dL]-NH2
modifications: lactam N-11; disulfide 2-7
SMILES: CC(C)C[C@@H](NC(=O)[C@H](CC(N)=O)NC(=O)[C@@H]1CC(=O)N(C)CCCCCC(=O)N[C@H]2CSSC[C@H](NC(=O)[C@H](CCC(N)=O)NC(=O)[C@H](Cc3c[nH]c4ccccc34)NC(=O)[C@H]([C@@H](C)O)NC(=O)[C@H](CC(N)=O)NC2=O)C(=O)N[C@@H](Cc2ccc(OCCN(C)C)cc2)C(=O)N[C@@H](Cc2ccc3ccccc3c2)C(=O)N[C@@](C)(CC(C)C)C(=O)N1)C(N)=O
B5: the “pSTAT3 (nM)” value came out at 50.8 nM.

B6: Compound of SEQ ID NO: 51 (peptide)
peptide: [Ava]CNT[Trp(7-Me)]K(Ac)C[Yde][2Nal][Thp]EN[3Pal]-NH2
modifications: lactam N-11; disulfide 2-7
SMILES: CC(=O)NCCCC[C@@H]1NC(=O)[C@H](Cc2c[nH]c3c(C)cccc23)NC(=O)[C@H]([C@@H](C)O)NC(=O)[C@H](CC(N)=O)NC(=O)[C@@H]2CSSC[C@H](NC1=O)C(=O)N[C@@H](Cc1ccc(OCCN(C)C)cc1)C(=O)N[C@@H](Cc1ccc3ccccc3c1)C(=O)NC1(CCOCC1)C(=O)N[C@H](C(=O)N[C@@H](CC(N)=O)C(=O)N[C@@H](Cc1cccnc1)C(N)=O)CCC(=O)NCCCCC(=O)N2
B6: the “pSTAT3 (nM)” value turned out to be 0.05 nM.

B7: Compound of SEQ ID NO: 45 (peptide)
peptide: [Ava]CNT[Trp(7-Me)]K(Ac)C[Yde][2Nal][Aib]ENH[Sar]-NH2
modifications: lactam N-11; disulfide 2-7
SMILES: CC(=O)NCCCC[C@@H]1NC(=O)[C@H](Cc2c[nH]c3c(C)cccc23)NC(=O)[C@H]([C@@H](C)O)NC(=O)[C@H](CC(N)=O)NC(=O)[C@@H]2CSSC[C@H](NC1=O)C(=O)N[C@@H](Cc1ccc(OCCN(C)C)cc1)C(=O)N[C@@H](Cc1ccc3ccccc3c1)C(=O)NC(C)(C)C(=O)N[C@H](C(=O)N[C@@H](CC(N)=O)C(=O)N[C@@H](Cc1c[nH]cn1)C(=O)N(C)CC(N)=O)CCC(=O)NCCCCC(=O)N2
B7: the “pSTAT3 (nM)” value is 0.67 nM.

B8: Compound of SEQ ID NO: 44 (peptide)
peptide: [Nmapt]CKWQC[AEF][2Nal][αMeL]EA[dL]-NH2
modifications: lactam N-10; disulfide 2-6; not fully specified (residue 3); printed as Nmapt(§1)-C(§3)(@2)-K[aAc](@3)-W-Q-C(@2)-Yae-Nal-Mle-E(§1)-A-(D-Leu)-NH2; reading uncertain; also: Cys2 carboxyl joined to Lys3 epsilon-NH2 (isopeptide bond)
On to B8, for which the “pSTAT3 (nM)” value turned out to be 42.5 nM.

B9: Compound of SEQ ID NO: 4 (peptide)
peptide: [Ava]CNTWQC[Phe(4-OMe)][2Nal][Aib]ENG-NH2
modifications: lactam N-11; disulfide 2-7
SMILES: COc1ccc(C[C@@H]2NC(=O)[C@@H]3CSSC[C@H](NC(=O)CCCCNC(=O)CC[C@@H](C(=O)N[C@@H](CC(N)=O)C(=O)NCC(N)=O)NC(=O)C(C)(C)NC(=O)[C@H](Cc4ccc5ccccc5c4)NC2=O)C(=O)N[C@@H](CC(N)=O)C(=O)N[C@@H]([C@@H](C)O)C(=O)N[C@@H](Cc2c[nH]c4ccccc24)C(=O)N[C@@H](CCC(N)=O)C(=O)N3)cc1
Consider B9, for which the “pSTAT3 (nM)” value is 34.8 nM.

B10: Compound of SEQ ID NO: 50 (peptide)
peptide: [Ava]CNT[Trp(7-Me)]K(Ac)C[Yde][2Nal][αMeL]ENH[βAla]-NH2
modifications: lactam N-11; disulfide 2-7
SMILES: CC(=O)NCCCC[C@@H]1NC(=O)[C@H](Cc2c[nH]c3c(C)cccc23)NC(=O)[C@H]([C@@H](C)O)NC(=O)[C@H](CC(N)=O)NC(=O)[C@@H]2CSSC[C@H](NC1=O)C(=O)N[C@@H](Cc1ccc(OCCN(C)C)cc1)C(=O)N[C@@H](Cc1ccc3ccccc3c1)C(=O)N[C@@](C)(CC(C)C)C(=O)N[C@H](C(=O)N[C@@H](CC(N)=O)C(=O)N[C@@H](Cc1c[nH]cn1)C(=O)NCCC(N)=O)CCC(=O)NCCCCC(=O)N2
Turning to B10, the “pSTAT3 (nM)” value came out at 0.98 nM.

B11: Compound of SEQ ID NO: 46 (peptide)
peptide: [Ava]CNT[Trp(7-Me)]K(Ac)C[Yde][2Nal][Thp]ENH[Sar]-NH2
modifications: lactam N-11; disulfide 2-7
SMILES: CC(=O)NCCCC[C@@H]1NC(=O)[C@H](Cc2c[nH]c3c(C)cccc23)NC(=O)[C@H]([C@@H](C)O)NC(=O)[C@H](CC(N)=O)NC(=O)[C@@H]2CSSC[C@H](NC1=O)C(=O)N[C@@H](Cc1ccc(OCCN(C)C)cc1)C(=O)N[C@@H](Cc1ccc3ccccc3c1)C(=O)NC1(CCOCC1)C(=O)N[C@H](C(=O)N[C@@H](CC(N)=O)C(=O)N[C@@H](Cc1c[nH]cn1)C(=O)N(C)CC(N)=O)CCC(=O)NCCCCC(=O)N2
B11: the “pSTAT3 (nM)” value stood at 0.84 nM.

B12: Compound of SEQ ID NO: 49 (peptide)
peptide: [Ava]CNT[Trp(7-Me)]K(Ac)C[Yde][2Nal][Thp]ENH[βAla]-NH2
modifications: lactam N-11; disulfide 2-7
SMILES: CC(=O)NCCCC[C@@H]1NC(=O)[C@H](Cc2c[nH]c3c(C)cccc23)NC(=O)[C@H]([C@@H](C)O)NC(=O)[C@H](CC(N)=O)NC(=O)[C@@H]2CSSC[C@H](NC1=O)C(=O)N[C@@H](Cc1ccc(OCCN(C)C)cc1)C(=O)N[C@@H](Cc1ccc3ccccc3c1)C(=O)NC1(CCOCC1)C(=O)N[C@H](C(=O)N[C@@H](CC(N)=O)C(=O)N[C@@H](Cc1c[nH]cn1)C(=O)NCCC(N)=O)CCC(=O)NCCCCC(=O)N2
For B12, the “pSTAT3 (nM)” value was 1.79 nM.

B13: Compound of SEQ ID NO: 39 (peptide)
peptide: [Ahx]E[Ava]WQT[Phe(4-OMe)][2Nal][Aib]DNN-NH2
modifications: lactam N-10; ester 2-6
SMILES: COc1ccc(C[C@@H]2NC(=O)[C@H]3NC(=O)[C@H](CCC(N)=O)NC(=O)[C@H](Cc4c[nH]c5ccccc45)NC(=O)CCCCNC(=O)[C@H](CCC(=O)O[C@@H]3C)NC(=O)CCCCCNC(=O)C[C@@H](C(=O)N[C@@H](CC(N)=O)C(=O)N[C@@H](CC(N)=O)C(N)=O)NC(=O)C(C)(C)NC(=O)[C@H](Cc3ccc4ccccc4c3)NC2=O)cc1
Take B13: the “pSTAT3 (nM)” value came out at 26.4 nM.
